We go through two molecules from patent US20060171941A1.

Test [1] deals with anti-V region antibodies to CC49 in the serum of patient one. The test can be described thus: SPR competition, soluble competitor Ab against immobilized HuCC49 for patient one serum anti-V region Abs.
For test [2] the target is unchanged. The test can be described thus: SPR competition for patient one serum anti-V region Abs.
Test [3] addresses bovine submaxillary mucin (TAG-72 positive) (bovine). The test can be described thus: competition RIA against 125I-mCC49 on BSM; relative affinity constant, modified Scatchard.
Test [4] has as its target anti-V region antibodies to CC49 in the serum of patient two. The test can be described thus: SPR competition, soluble competitor Ab against immobilized HuCC49 for patient two serum anti-V region Abs.
Test [5] concerns the target tumor-associated glycoprotein-72 on the cell surface of Jurkat cells. The test can be described thus: flow cytometry, 0.5 ug Ab on Jurkat cells expressing TAG-72.

Residue numbers refer to the chain shown, from its start.

B1: HuCC49V10 (antibody, V domains shown)
VH: QVQLVQSGAEVVKPGASVKISCKASGYTFTDHAIHWVKQNPGQRLEWIGYFSPGNDDFKYSQKFQGKATLTADTSASTAYVELSSLRSEDTAVYFCTRSLNMAYWGQGTLVTVSS
VL: DIVMSQSPDSLAVSLGERVTLNCKSSQSVLYSSNSKNYLAWYQQKPGQSPKLLIYWASTRESGVPDRFSGSGSGTDFTLTISSVQAEDVAVYYCQQYYSYPLSFGAGTKLELK
With B1, the IC50 (in general, the midpoint of a concentration-inhibition curve) in test [1] was more than 1000 nM. In test [2], this molecule came in with a concentration required for 20% inhibition of 80 nM and a percent inhibition at 1000 nM of less than 30%. The molecule further came in with a Ka in test [3] of 5.9e+07 M⁻¹. The molecule further returned an IC50 in test [4] of 7.7 nM. In test [5], this molecule showed a % of gated cells of 25.8% and a mean fluorescence intensity of 62.9.

B2: humanized CC49 (CDR-grafted) (antibody, V domains shown)
VH: B1 VH with S61N, Q62E, K63R, Q65K
VL: B1 VL with V29L, S33G, S35Q, T59A, S103T
On to B2, for which the results for the IC50 in test [1] and in test [4] were 6 nM and 2.2 nM, respectively. In test [2], the concentration required for 20% inhibition was 2 nM. Besides, the Ka in test [3] amounted to 1.16e+08 M⁻¹.
